The values below come from PMC5315667 (The Plant journal : for cell and molecular biology, 2017).

Data set [1] has as its target T1, VvEG16 (Vitis vinifera, UniProt F6I323, E88A/DEL151-151). The experiment in a line: X-ray crystallography, […] Å. Type of data set: binding. To be noted: negative subsites of chain A; from tXyGO mixture.
Data set [2] concerns the target VvEG16 (Vitis vinifera, UniProt F6I323, C21S/DEL151-151/C188S). The experiment in a line: X-ray crystallography, […] Å. Type of data set: binding. To be noted: co-crystallised with 5 mM; negative subsites.
For data set [3], the target named is T1, VvEG16. The experiment in a line: X-ray crystallography, […] Å. In kind it is binding. The following applies: alpha-anomer, negative subsites of chain A.
Substrate in data set [4]: O=[N+]([O-])c1ccc(O[C@@H]2O[C@H](CO)[C@@H](O[C@@H]3O[C@H](CO[C@H]4OC[C@@H](O)[C@H](O)[C@H]4O)[C@@H](O[C@@H]4O[C@H](CO[C@H]5OC[C@@H](O)[C@H](O)[C@H]5O)[C@@H](O[C@@H]5O[C@H](CO[C@H]6OC[C@@H](O)[C@H](O)[C@H]6O)[C@@H](O)[C@H](O)[C@H]5O)[C@H](O)[C@H]4O)[C@H](O)[C@H]3O)[C@H](O)[C@H]2O)c(Cl)c1
Description: chromogenic substrate hydrolysis, CNP release. Type of data set: biochemical, Vitis vinifera. To be noted: 20 mM sodium citrate, pH 6, 30°C.

Substrate in data set [5]: O=[N+]([O-])c1ccc(O[C@@H]2O[C@H](CO)[C@@H](O[C@@H]3O[C@H](CO)[C@@H](O[C@@H]4O[C@H](CO)[C@@H](O)[C@H](O)[C@H]4O)[C@H](O)[C@H]3O)[C@H](O)[C@H]2O)c(Cl)c1
Description: chromogenic substrate hydrolysis, CNP release. In kind it is biochemical, Vitis vinifera. The following applies: 20 mM sodium citrate, pH 6, 30°C.

Substrate in data set [6]: O=[N+]([O-])c1ccc(O[C@@H]2O[C@H](CO)[C@@H](O[C@@H]3O[C@H](CO)[C@@H](O)[C@H](O)[C@H]3O)[C@H](O)[C@H]2O)cc1
Description: chromogenic substrate hydrolysis, PNP release. Type of data set: biochemical, Vitis vinifera. The following applies: 20 mM sodium citrate, pH 6, 30°C.

Substrate in data set [7]: O=[N+]([O-])c1ccc(O[C@@H]2O[C@H](CO)[C@@H](O[C@@H]3O[C@H](CO)[C@@H](O[C@@H]4O[C@H](CO)[C@@H](O)[C@H](O)[C@H]4O)[C@H](O)[C@H]3O)[C@H](O)[C@H]2O)cc1
Description: chromogenic substrate hydrolysis, PNP release. Type of data set: biochemical, Vitis vinifera. The following applies: 20 mM sodium citrate, pH 6, 30°C.

Substrate in data set [8]: O=[N+]([O-])c1ccc(O[C@@H]2O[C@H](CO)[C@@H](O[C@@H]3O[C@H](CO)[C@@H](O)[C@H](O)[C@H]3O)[C@H](O)[C@H]2O)c(Cl)c1
Description: chromogenic substrate hydrolysis, CNP release. In kind it is biochemical, Vitis vinifera. To be noted: 20 mM sodium citrate, pH 6, 30°C.

Substrate in data set [9]: O=[N+]([O-])c1ccc(O[C@@H]2O[C@H](CO)[C@@H](O[C@@H]3O[C@H](CO)[C@@H](O)[C@H](O)[C@H]3O)[C@H](O)[C@H]2O)c([N+](=O)[O-])c1
The experiment in a line: purified protein. To be noted: 20 mM sodium citrate, pH 6, 30°C.

Substrate in data set [10]: O=[N+]([O-])c1ccc(O[C@@H]2O[C@H](CO)[C@@H](O[C@@H]3O[C@H](CO)[C@@H](O[C@@H]4O[C@H](CO)[C@@H](O)[C@H](O)[C@H]4O)[C@H](O)[C@H]3O)[C@H](O)[C@H]2O)c([N+](=O)[O-])c1
The experiment in a line: purified protein. To be noted: 20 mM sodium citrate, pH 6, 30°C.

`OC[C@H]1OC(O)[C@H](O)[C@@H](O)[C@@H]1O[C@@H]1O[C@H](CO[C@H]2OC[C@@H](O)[C@H](O)[C@H]2O)[C@@H](O[C@@H]2O[C@H](CO[C@H]3OC[C@@H](O)[C@H](O)[C@H]3O)[C@@H](O[C@@H]3O[C@H](CO[C@H]4OC[C@@H](O)[C@H](O)[C@H]4O)[C@@H](O)[C@H](O)[C@H]3O)[C@H](O)[C@H]2O)[C@H](O)[C@H]1O` (stereo partly drawn) [XXXG]: the “X-ray crystallography, 1.79 Å” value on VvEG16 [1] is given as “Chain A additionally contained an apparent XXXG moiety in the negative subsites”. Also, the “X-ray crystallography, 1.59 Å” value on VvEG16 [2] is on record as “Fortuitous crystallization of this variant in complex with the heptasaccharide XXXG in the negative subsites”.

Take `OC[C@H]1O[C@@H](O[C@@H]2[C@@H](O)[C@H](O[C@H]3[C@H](O)[C@@H](O)[C@H](O[C@H]4[C@H](O)[C@@H](O)C(O)O[C@@H]4CO)O[C@@H]3CO)O[C@H](CO)[C@H]2O)[C@H](O)[C@@H](O)[C@@H]1O` (stereo partly drawn) [G3GGG, β-D-Glcp-(1,3)-β-D-Glcp-(1,4)-β-D-Glcp-(1,4)-β-D-Glcp]: the “X-ray crystallography, 1.65 Å” value on VvEG16 [3] is given as “presence of the α-anomer of G3GGG in the negative subsites”.

B1: VvEG16 (Vitis vinifera) (protein)
chain: MADPSLHHEAQPLKFIAVDYCPESCTHSPESSTITLTFDHRGGSRWRSTTRFQYGTFSSLIQCPKGNTSGLNFNIYLSSLEGDKSQDEIDFEFLGKDKRIVQTNYYTAGTGNREAIHDLGFDCSDGFHEYVIKWGPDLIQWLIDGKVIRSVVRADGEGFPQKPMFLYASVWDASYIDEGRWTGPYVGCDAPYICLYKNVNVPVGTAVE
Take B1: in data set [4], the Michaelis constant (Km) was 1100 ± 300 µM, the turnover number (kcat) amounted to 0.2 ± 0.00833 s⁻¹ and the kcat/Km was found to be 180 M⁻¹ s⁻¹. In data set [5], the Michaelis constant (Km) was found to be 800 ± 100 µM, the kcat was 0.0163 ± 0.0005 s⁻¹ and the kcat/Km was 20 M⁻¹ s⁻¹.

B2: VvEG16 (Vitis vinifera; DEL151-151) (protein)
chain: MADPSLHHEAQPLKFIAVDYCPESCTHSPESSTITLTFDHRGGSRWRSTTRFQYGTFSSLIQCPKGNTSGLNFNIYLSSLEGDKSQDEIDFEFLGKDKRIVQTNYYTAGTGNREAIHDLGFDCSDGFHEYVIKWGPDLIQWLIDGKVIRSVRADGEGFPQKPMFLYASVWDASYIDEGRWTGPYVGCDAPYICLYKNVNVPVGTAVE
Consider B2, for which the Michaelis constant (Km) in data set [6] stood at 5900 ± 600 µM; in data set [7], 2800 ± 200 µM; in data set [8], 3500 ± 400 µM; in data set [5] it was 1100 ± 100 µM; in “purified protein [9]”, 2000 ± 200 µM; in “purified protein [10]”, 800 ± 60 µM. Further, the kcat came out at 0.000383 ± 3.33e-05 s⁻¹ in data set [6]; 0.0025 ± 0.0001 s⁻¹ in [7]; 0.0075 ± 0.000333 s⁻¹ in [8]; 0.0172 ± 0.000667 s⁻¹ in data set [5]; 0.333 ± 0.0167 s⁻¹ in the data set “purified protein [9]”; 1.58 ± 0.0333 s⁻¹ in the data set “purified protein [10]”. In addition, the kcat/Km stood at 0.065 M⁻¹ s⁻¹ in data set [6]; 0.9 M⁻¹ s⁻¹ in data set [7]; 2.1 M⁻¹ s⁻¹ in data set [8]; 16 M⁻¹ s⁻¹ in [5]; 170 M⁻¹ s⁻¹ in “purified protein [9]”; 2000 M⁻¹ s⁻¹ in “purified protein [10]”.

By Km is commonly meant the substrate concentration at which the rate is half of its maximum. In general, kcat refers to the maximal rate divided by the concentration of active sites. For orientation: kcat/Km means the turnover number divided by the Michaelis constant.
